Laboratory results: US6867193B1, “Amino acid-containing albumin preparation” (Nipro Corporation, priority 1999, dated 2005)

Test system: hepatic encephalopathy model animal
Assay: hepatic encephalopathy model rat (partial hepatectomy + ammonium acetate): coma period and plasma ammonia (Test Examples 1-3)
Type: in vivo
Conditions: for coma period / concentration of ammonia in the blood: mean ± standard error
Experimental: A test drug was prepared by dissolving rat serum albumin (RSA, manufactured by Sigma Corp.) in an amino acid solution (components are disclosed in Table 3) to form a 0.1 w/v % or 1.0 w/v % solution, adding 1.0 N hydrochloric acid thereto to adjust the pH to 6.6 to 7.4 according to Preparation Example 3, filling the solution into a 500 ml infusion bottle and heating at 60° C. for 10 hours after sealing the bottle with a rubber plug. In comparison, physiological saline or the amino acid solution (pH 6.6 to 7.4), respectively, was used in the same way.
Rat partial hepatectomy was carried out by performing a laparotomy of a male SD rat (body weight of 200 to 230 g) under etherization, removing a lateral left lobe, a medial left lobe and a medial right lobe (67%) and closing the abdomen (Archs. Pathol., 1985; 12: 186-202).
A hepatic encephalopathy model animal was created by administering 2 M ammonium acetate solution at a rate of 3 ml/kg into the rat abdomen after 48 hours from the partial hepatectomy (“Kiso to Rinsho”, 1987; 21: 2509-2527).
The test drug was injected from the rat tail vein (10 ml/kg) 2 minutes before administering the ammonium solution. Subsequently, the coma period (minutes) was measured, blood was collected from the rat tail vein 30 minutes after administration of the ammonium solution, and the ammonia concentration in the blood plasma was determined by using an ammonia measuring reagent kit (brand name: Determiner NH3, manufactured by Kyowa Medics Corporation).
A test drug was prepared by dissolving human serum albumin (HSA, manufactured by Sigma Corp.) in the amino acid solution (components are disclosed in Table 3) in the same manner as in Preparation Example 3 to form a desired concentration of the solution (0.001, 0.01, 0.1 or 1.0 w/v %). 6 to 14 male SD rats (body weight 200 to 230 g) as test animals were used per one group, and creation of a hepatic encephalopathy model animal and a test method were carried out in the same manner as Test Example 1. The test drug was injected in an amount of 10 ml/kg from the tail vein.
A test drug was prepared by dissolving bovine serum albumin (BSA, manufactured by Sigma Corp.) in the amino acid solution (components bare disclosed in Table 3) in the same manner as in Preparation Example 3 to form a desired concentration of the solution (0.1 w/v % or 1.0 w/v %). Creation of a hepatic encephalopathy model animal and a test method were carried out in the same manner as Test Example 1.

Molecule | coma period (Test Example 3 (BSA)) [min] | concentration of ammonia in the blood (Test Example 3 (BSA)) [µmol/dL] | effect on the hepatic encephalopathy (Test Example 1, text on Table 4) | concentration of ammonia in the blood (Test Example 1, blood plasma 30 min after ammonium solution, test drug 10 ml/kg tail vein) [µmol/dL] | coma period (Test Example 1, male SD rat, test drug 10 ml/kg tail vein 2 min before ammonium acetate) [min]
1.0% BSA: bovine serum albumin (BSA, manufactured by Sigma Corp.), 1.0%, given alone | 23 ± 3 | 119 ± 10 | – | – | –
1.0% RSA: rat serum albumin (RSA, manufactured by Sigma Corp.), 1.0% final concentration, given alone (protein, UniProt P02770 25-608, looked up) Albumin: EAHKSEIAHRFKDLGEQHFKGLVLIAFSQYLQKCPYEEHIKLVQEVTDFAKTCVADENAENCDKSIHTLFGDKLCAIPKLRDNYGELADCCAKQEPERNECFLQHKDDNPNLPPFQRPEAEAMCTSFQENPTSFLGHYLHEVARRHPYFYAPELLYYAEKYNEVLTQCCTESDKAACLTPKLDAVKEKALVAAVRQRMKCSSMQRFGERAFKAWAVARMSQRFPNAEFAEITKLATDVTKINKECCHGDLLECADDRAELAKYMCENQATISSKLQACCDKPVLQKSQCLAEIEHDNIPADLPSIAADFVEDKEVCKNYAEAKDVFLGTFLYEYSRRHPDYSVSLLLRLAKKYEATLEKCCAEGDPPACYGTVLAEFQPLVEEPKNLVKTNCELYEKLGEYGFQNAVLVRYTQKAPQVSTPTLVEAARNLGRVGTKCCTLPEAQRLPCVEDYLSAILNRLCVLHEKTPVSEKVTKCCSGSLVERRPCFSALTVDETYVPKEFKAETFTFHSDICTLPDKEKQIKKQTALAELVKHKPKATEDQLKTVMGDFAQFVDKCCKAADKDNCFATEGPNLVARSKEALA | – | – | no effect | 129 ± 13 | 31 ± 5
